From US20200055939A1 (Genentech, published 2020)
Residue numbers refer to the chain shown, from its start. One block for each binder: values may come before it.

Columns and labels:
Assay in all cases: SPR, Fab over captured MICA*008.mIgG2a Ala variant; KD relative to wild type
R274A = molecular target: T1, R274A
T1 construct: % monomer 94; also called MICA*008.mIgG2a R274A
T1 chain: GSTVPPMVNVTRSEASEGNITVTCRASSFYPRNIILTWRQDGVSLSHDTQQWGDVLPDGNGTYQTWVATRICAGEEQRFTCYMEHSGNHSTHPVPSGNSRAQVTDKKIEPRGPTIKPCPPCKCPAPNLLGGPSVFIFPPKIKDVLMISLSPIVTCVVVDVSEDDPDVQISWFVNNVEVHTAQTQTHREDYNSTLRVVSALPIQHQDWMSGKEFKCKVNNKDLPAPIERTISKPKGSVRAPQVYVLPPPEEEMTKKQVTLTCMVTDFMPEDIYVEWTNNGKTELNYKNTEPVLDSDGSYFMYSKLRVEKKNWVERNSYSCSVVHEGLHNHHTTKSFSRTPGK
Description: (§1) The binding kinetics of the anti-MICA/B antibodies binding to the MICA alanine variants was measured using surface plasmon resonance (SPR) on a T200 instrument (GE Healthcare). Anti-murine Fc (GE Healthcare) was immobilized on a CM5 sensor chip via amine-based coupling using manufacturer provided protocol. MICA*008.mIgG2a alanine variants were captured by the anti-murine Fc and the anti-MICA/B antibodies as Fabs were passed over. Fab binding was measured to human MICA*008 alpha 3 domains (mIgG2a tagged, in-house). Sensograms for binding of anti-MICA/B Fabs were recorded using an injection time of 2 minutes with a flow rate of 30 μL/min, at a temperature of 25° C., and with a running buffer of 10 mM HEPES, pH 7.4, 150 mM NaCl, 3 mM EDTA and 0.005% Tween 20. After injection, disassociation of the Fab from the alpha 3 domain was monitored for 5 minutes in running buffer. The surface was regenerated between binding cycles with a 70 μL injection of 10 mM Glycine HCl pH 1.7. After subtraction of a blank which contained running buffer only, sensograms observed for anti-MICA/B Fab binding to MICA were analyzed using a 1:1 Langmuir binding model with software supplied by the manufacturer to calculate the kinetics and binding constants. Sensograms of anti-MICA/B antibody binding to captured MICA*008 alanine variants were used to calculate the dissociation constant (Kd).

G275A = molecular target: T2, G275A
T2 construct: % monomer 98.9; also called MICA*008.mIgG2a G275A
T2 chain: T1 chain with A73R, G74A
Description: as §1

Y283A = molecular target: T3, Y283A
T3 construct: % monomer 92.7; also called MICA*008.mIgG2a Y283A
T3 chain: T1 chain with A73R, Y82A
Description: as §1

V244A = molecular target: T4, V244A
T4 construct: % monomer 97.6; also called MICA*008.mIgG2a V244A
T4 chain: T1 chain with V43A, A73R
Description: as §1

R240A = molecular target: T5, R240A
T5 construct: % monomer 93.8; also called MICA*008.mIgG2a R240A
T5 chain: T1 chain with R39A, A73R
Description: as §1

H248A = molecular target: T6, H248A
T6 construct: % monomer 92.05; also called MICA*008.mIgG2a H248A
T6 chain: T1 chain with H47A, A73R
Description: as §1

- fold-decrease in affinity (R274A): 1.1
- fold-decrease in affinity (G275A): 1
- fold-decrease in affinity (Y283A): 0.2
- fold-decrease in affinity (V244A): 1
- fold-decrease in affinity (R240A): 1
- fold-decrease in affinity (H248A): 1
B1: 2E5.2.3 Fab (Fab, V domains shown)
VH: QGQMQQSGAELVKPGASVKLSCKTSGFTFSDNYISWLKQKPGQSLEWIAWIYAGTGGTSYNQKFTAKAQLTVDTSSSTAYMQFSSLTTEDSAIYYCARHDYYGTSGAWFAYWGQGTLVTVSA
VL: DVLMTQTPLSLPVSLGDQASLSCRSSQNIVHINGNTYLEWYLQKPGQSPKLLIYKVSNRFSGVPDRFSGSGSGTDFTLKISRVEAEDLGVYYCFQGSHVPWTFGGGTKVEIK

- fold-decrease in affinity (R274A): 1
- fold-decrease in affinity (G275A): 4.6
- fold-decrease in affinity (Y283A): 1.7
- fold-decrease in affinity (R240A): 4.5
- fold-decrease in affinity (H248A): 0.6
B2: 6F8.7 Fab (Fab, V domains shown)
VH: DVQLQGSGPGLVKPSQSLSLTCSVTGYSITNDYYWNWIRQFPGNKLEWMGFISFGGSNNYNPSLKNRISITRDTSKNQFFLKLSSVTTEDTATYYCARYDGRGAWFAYWAQGTLVTVSA
VL: DIQMTQSPASLSASVGETVTITCRASGNIHNYLAWYQQKQGKSPQLLVYDAITLADGVPSRFSGSGSGTQYSLKINSLQPEDFGNYYCQHFWSFPLTFGAGTKVEIK

- fold-decrease in affinity (R274A): 0.9
- fold-decrease in affinity (H248A): 0.6
B3: 7D4.6 Fab (Fab, V domains shown)
VH: DVQLQESGPGLVKPSQSLSLTCTVTGYSITSDYAWNWIRQFPRNKLEWMGYINYSGTTNYNPSLKSRISITRDTSKNQFFLQLISVTTEDTATYYCSYYRYDGAWFPYWGQGTLVTVSA
VL: B2 VL with D50N, T53M, G64A, N85S
